The values below come from paper PMC6821130.

For experiment [1], the target named is 6XHis-PilT (Vibrio cholerae). The experiment in a line: negative-stain electron microscopy.
Experiment [2] concerns the target 6XHis-PilU (Vibrio cholerae). The experiment in a line: negative-stain electron microscopy.
The target of experiment [3] is 6xHis-PilT^K136A (Vibrio cholerae). The experiment in a line: negative-stain electron microscopy.
Experiment [4] has as its target 6xHis-PilU^K134A (Vibrio cholerae). Briefly: negative-stain electron microscopy.
Experiment [5] has as its target PilC (full length, fused to the T18 or T25 fragment of adenylate cyclase) (UniProt Q9X4G9). The experiment in a line: BACTH Miller assay. To be noted: read off a plot.
Experiment [6] concerns the target PilT (full length, fused to the T18 or T25 fragment of adenylate cyclase). Briefly: BACTH Miller assay. To be noted: read off a plot.
The target of experiment [7] is PilT^K136A (full length, fused to the T18 or T25 fragment of adenylate cyclase). The experiment in a line: BACTH Miller assay. To be noted: read off a plot.
For experiment [8], the target named is PilU (full length, fused to the T18 or T25 fragment of adenylate cyclase). The experiment in a line: BACTH Miller assay. To be noted: read off a plot.
Experiment [9] concerns the target PilU^K134A (full length, fused to the T18 or T25 fragment of adenylate cyclase). Briefly: BACTH Miller assay. To be noted: parent: est. 180; read off a plot.

Where “and” joins values, the source holds several entries; their conditions need not be identical. Identical values can stand only once.

UniProt Q9X4G9, sequence (Q9X4G9 whole entry, the tested form may be a part): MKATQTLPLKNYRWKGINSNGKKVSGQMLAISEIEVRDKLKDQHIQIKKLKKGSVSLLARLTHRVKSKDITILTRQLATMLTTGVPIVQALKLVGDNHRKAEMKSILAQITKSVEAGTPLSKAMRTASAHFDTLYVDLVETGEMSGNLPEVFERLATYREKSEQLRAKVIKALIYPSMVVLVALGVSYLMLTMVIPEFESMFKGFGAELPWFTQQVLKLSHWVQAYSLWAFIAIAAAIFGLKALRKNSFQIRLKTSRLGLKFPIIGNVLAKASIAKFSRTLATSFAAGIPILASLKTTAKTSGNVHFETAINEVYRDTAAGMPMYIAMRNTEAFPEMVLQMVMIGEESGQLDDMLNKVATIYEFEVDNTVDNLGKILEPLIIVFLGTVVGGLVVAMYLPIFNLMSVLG

Usually stoichiometry N stands for a count of units in the complex or per binding partner. 6XHis-PilT (enzyme): in [1], the stoichiometry N is 6.

As to 6XHis-PilU (enzyme), the stoichiometry N in [2] amounted to 6.

Substance 6xHis-PilT^K136A (enzyme) displayed a stoichiometry N in experiment [3] of 6.

6xHis-PilU^K134A (enzyme): the stoichiometry N in [4] turned out to be 6.

On to “PilT (full length, fused to the T18 or T25 fragment of adenylate cyclase) K136A”, for which the response is 80 Miller Units in experiment [5] (parent: est. 90); 110 Miller Units in experiment [5] (parent: est. 120); 170 Miller Units and 160 Miller Units in [6] (parent: est. 170); 85 Miller Units in [7] (parent: est. 170); 8.5 Miller Units in experiment [8] (parent: est. 65); 78 Miller Units in experiment [8] (parent: est. 110).

As for “PilU (full length, fused to the T18 or T25 fragment of adenylate cyclase) K134A”, the response in experiment [5] (parent: est. 55) is 75 Miller Units; in experiment [5] (parent: est. 100), 110 Miller Units; in experiment [6] (parent: est. 65), 85 Miller Units; in [6] (parent: est. 110), 78 Miller Units; in experiment [8] (parent: est. 180) it was 180 Miller Units and 220 Miller Units; in [9], 140 Miller Units.

Take m2; m1 PilU:K134A; PilT:K136A: the response in experiment [7] (parent: est. 65) came to 11 Miller Units; in [7] (parent: est. 110) it was 48 Miller Units.
